Laboratory results reported in paper PMC8163507, “PHAROH lncRNA regulates Myc translation in hepatocellular carcinoma via sequestering TIAR”.

T1: TIAR (nucleolysin TIAR, TIAL-1) (human, UniProt Q01085 1-375)
T1 sequence: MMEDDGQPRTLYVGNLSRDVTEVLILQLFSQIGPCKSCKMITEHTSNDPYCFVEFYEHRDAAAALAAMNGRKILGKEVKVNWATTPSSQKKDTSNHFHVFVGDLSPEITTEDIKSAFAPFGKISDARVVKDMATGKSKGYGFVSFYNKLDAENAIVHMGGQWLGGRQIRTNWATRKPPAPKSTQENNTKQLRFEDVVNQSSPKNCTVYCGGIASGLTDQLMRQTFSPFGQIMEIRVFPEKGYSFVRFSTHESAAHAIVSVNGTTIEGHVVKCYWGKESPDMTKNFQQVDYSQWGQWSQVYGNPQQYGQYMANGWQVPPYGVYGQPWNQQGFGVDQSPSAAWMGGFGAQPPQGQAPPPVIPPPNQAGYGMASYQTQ


Experiments:
[1] = target: T1, TIAR (nucleolysin TIAR, TIAL-1); assay: EMSA; prefers one copy; three only at saturating TIAR; EMSA: ~2 fmol probe in 20 ul, 10 mM HEPES pH 7.3, 20 mM KCl, 1 mM MgCl2 (printed Mg2Cl2), 1 mM DTT, 30 ng/ul BSA, 0.01% NP-40, 5% glycerol, room temperature 30; conditions: protein: commercial; label: 3' biotin; single strand; sites predicted largely in loop
[2] = target: T1, TIAR (nucleolysin TIAR, TIAL-1); assay: EMSA; densitometry of free probe; sequential shifts, prefers two and four copies; EMSA: ~2 fmol probe in 20 ul, 10 mM HEPES pH 7.3, 20 mM KCl, 1 mM MgCl2 (printed Mg2Cl2), 1 mM DTT, 30 ng/ul BSA, 0.01% NP-40, 5% glycerol, room temperature 30; conditions: protein: commercial; hairpin (predicted)

Binder | binding result [1] | Kd [2] [nM]
Myc 3' UTR 53-nt fragment (ssRNA) RNA: GCUUCCCAUCUUUUUUCUUUUUCCUUUUAACAGAUUUGUAUUUAAUUGUUUUU | binds | –
PHAROH 71-nt hairpin (WT) (structured_RNA) RNA: GAGAGGAUGCCACUGUUUUGAACUAUUUUGAAGGCACAGCCACCAGAGCUUUAGGGACAGGGUAUUUUAUC | – | ~2
